Reference: the nanobody polyreactivity screen of Harvey et al. (2022)

Assay: yeast display, Sf9 membrane polyspecificity reagent, FACS + sequencing; frameworks hold sequencing errors
Method in brief: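 Polyreactivity labels are assigned by the sorting gate from which each nanobody was recovered. The gates were low and high (top ~1%), set on anti-HA fluorescence for expression and streptavidin fluorescence for reagent binding. Before sorting, galactose-induced (36–48 hours) yeast display cells were stained for 1 hour at 4 °C with 10% biotinylated, detergent-solubilized Sf9 membrane reagent.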

QVQLVESGGGLVQAGGSLRLSCAASGFTFTENVMGWYRQAPGKEREFVAAITYIGGRTYYADSVKGRFTISRDNAKNSVYLQMNSLKPEDTAVYYCAADWAYYVASYLYYTFDYWGQGTQVTVSS
polyreactivity (PSR sort gate): low polyreactivity

QVQLVESGGGLVQAVGSLRLSCAASGSTFGKNAMGWYRQAPGKERELVAAISTSGTRSFYADSVKGRFTISRDTAKNTVYLQMNSLKPEDTAVYYCNAGRSSRAYYYWGQGTQVTVSS
polyreactivity (PSR sort gate): high polyreactivity

QVQLVESGGGLVQAGGSLRLSCAASGFTFVSYAMGGYRQAPGKERELVASISSGGSTYYADSVKGRFTISRDNAKNTVYLQMNSLKPEDTAVYYCAAYSRWGRWFTIYNYWGQGTQVTVSS
polyreactivity (PSR sort gate): high polyreactivity

QVQLVESGGGLVQAGGSLRLSCAASGSTFYIYAMGWYRQAPGKERELVARISGSGGSTYYADSVKGRFTISRDNAKNTVYLQMNSLKPEDTAVYYCAADYIYKYYQYYAFPYYRYDYWGQGTQVTVSS
polyreactivity (PSR sort gate): low polyreactivity

QVQLVESGGGLVQAGGSLRLSCAASGSIFRYNAMGWYRQAPGKERELVAAITSGDSTYYADSVKGRFTISRDNAKNTVYLQMNSLKPEDTAVYYCAADLRYIYWSYYYWGQGTQVTVSS
polyreactivity (PSR sort gate): low polyreactivity

QVQLVESGGGLVQAGGSLRLSCSASGSTIPVYAMGWYRQPPGKERELVAAITGSGARTYYADSVKGRFTFSRDNAKNTVYLQMNSLKPEDTAVYYCAKRTVIAVYGFPYRYGMNYWGQGTQVTVSS
polyreactivity (PSR sort gate): high polyreactivity

QVQLVESGGGLVQAGGSLRLSCAASGSTFDDNGMGWYRKAPGKERELVAGINSAGSTYYADSVKGRFTISRDNAKNTVYLQMNSLKPEDTAVYYCARRFLLKDRTKRAYGSWGQGTQVTVSS
polyreactivity (PSR sort gate): low polyreactivity

QVQLVESGGGLVQAGGSLRLSCSASGFIFYKNAMGWYRQAPGKERELVAAISGGGGSTYYADSVKGRFTISRDNAKNTVYLQMNSLKPDDTAVYYCATYSFRRTGWRYDYWGQGSQVTVSS
polyreactivity (PSR sort gate): high polyreactivity

QVQLVESGGGLVQAGGSLRLSCAASGFIYSTYAMGWYRQAPGKERELVAAISWSGGRTNYADSVKGRFTISRDNAKNTVYLQMNSLKPEDTAVYYCAVGGERGARIGSNHRGSRYDYWGQGTQVTVSS
polyreactivity (PSR sort gate): high polyreactivity

QVQLVESGGGLVQAGGSLRLSCAASGRIFARYVMGWYRQAPGKERELVAAISPSGSRTYYADSVKGRFTISRDNAKNTVYLQMNSLKPEDTAVYYCAATGVYTKNPRGMDYWGQGTQVTVSS
polyreactivity (PSR sort gate): high polyreactivity

QVQLVESGGGLVQAGGSLRLSCAASGTFAGNAMGWYRQAPGKERELVAAITTGGRTYYADSVKGRFTISRDNAKNTVYLQMNSLKPEDTAVYYCAADRIRDLEFDYWGQGTKVTVSS
polyreactivity (PSR sort gate): low polyreactivity

QVQLVESGGGLVQAGGSLRLSCAASGRTFRVYAMGWYRQAPGKERELVAAISGRGGSTYYADSVKGRFSISRDNAKNTVYFQMNSLKPEVTAVYYCAKSNPYLRLCEGNYWGQGTQVTVSS
polyreactivity (PSR sort gate): high polyreactivity

QVQLVESGGGVVQAGGSLRLSCAASGRIFRNNAMGWYRQAPGKERVLVAGIRGGGSTYYADSVKGRFTISRDNAKNTVYLQMNSLKPEDTAVYYCNAEASRYVGYGAWQTERDYWGQGTQVTVSS
polyreactivity (PSR sort gate): low polyreactivity

QVQLVESGGGLVQAGGSLRLSCAASGSTFGSYAMGWYRQAPGKERELVAGISWSGGRTYYADSVKGRFTISRDNAKNTVYLQMNSLKPEDTAVFYCALDTGYYYARYNFWGQGTKVTVSS
polyreactivity (PSR sort gate): low polyreactivity

QVQLVESGGGLVQAGGRLRLSCAASGRTFFQYAMGWYRQAPGKERELVAAIRCSDSTYYADSVKGRFTISRDNAKNTVYLQMNSLKPEDTAVYYCAVRAYREFLPIVYKWWWERDHWGQGTQVTVSS
polyreactivity (PSR sort gate): low polyreactivity

QFQLVESGGGLVQAGGSLRLSCAASGRIFVYYMGWYRQAPRKERELVAALSFGGGSTYYADSVKGRFTISRDNAKNTVYLQMNSLKPEDNAVYYCNADGDDLDWNYYLVQYDYWGQGTQVTVSS
polyreactivity (PSR sort gate): low polyreactivity

QVQLVESGGGLVQAGGSLRLSCAASGRTFDRYAMGWYRQAPGKERELVAAITWSGGRTYYADSVKGRFTISRDNAKNTVYLQMNSLKPEDTAVYYCAADNSYRGYHSPYDYWGQGTQVTVSS
polyreactivity (PSR sort gate): low polyreactivity

QVQLVESGGCLVQAGGSLRLSCSSSGSTFEYNAIGWYRQAPGKERELVAAIRSSSSTHYADSVKGRFTISRDNAKNTVYLQMNSLKPEDTAVYYFNTDAHYYDHWGQGTQVTVSS
polyreactivity (PSR sort gate): low polyreactivity

QVQLVESGGGLVQAGGSLRLSCAASGRIFGYNAMGWYRPAPGKEREVVAAISWNGGSTYYADSVKGRFTISRDNAKNTVYLQMNSLKPEDTAVYYCNADPSDRRYPHTWTKMGYWGQGTQVTVSS
polyreactivity (PSR sort gate): low polyreactivity

QVQLVESGGGLVQAGGSLRLSCAASGTIFNRYAMGWYRQAPGKERELVAAITRGGTTYYADSVKGRFTISRDNATNTVYLQMNSLKPEDTAVYYCAARLRYTTVIYYYWGQGTQVTVSS
polyreactivity (PSR sort gate): high polyreactivity

QVQLVESGGGLVQAGGSLRLICAASGRIFGRNAMGWYRQARGKERELVAGISSGGTTDYADSVKGRFTISRDNAKNTVYLQMNSLKPEDTAVYYCNVDNDDSAFYAIFVLYDYWGEGTQVTVSS
polyreactivity (PSR sort gate): low polyreactivity

QVQHVESGGGLVQAGGSLRLSCAASGRTFRRNAVGWYRQAPGNERELVATISRGGSTTYADSVKGRFTISRDKAKNTVYLQMNSLKPEDTAVYYCAARTSKRYSYADHDYWGQGTQVTVSS
polyreactivity (PSR sort gate): low polyreactivity

QVQLVESGGGLVQAGGSLRLSCAASGRTFWANAMGWYRQAPGKERELVAAITIDGRTSYADSVKGRFTISRDNAKNTVYLQMNSLKPEDTAVYYCATEPFYTYGYYTYPYWYDYWGQGTQVTVSS
polyreactivity (PSR sort gate): low polyreactivity

QDQLVEAGGGVVQAGGSLRLSCAASVIIIDYYAMAWYRQAPAKERELDAAITSGGSTSYADSVKGRFTISRDNAKNTVYLQMNSLKPEDTAVYYCNNEPSGYQSAYWGQGTQVTVSS
polyreactivity (PSR sort gate): low polyreactivity

QVQLVESGGGLVQAGGSLRLSCAASGRIFGPYTMGWYRQAPGKERELVATISYSGSTTYYADSVKGRFTISRDNAKNTVYLQMNSLKPEDTAVYYCNAQYYVFITFDYWGQGTQVTVSS
polyreactivity (PSR sort gate): high polyreactivity

QVHLVESGGGLVQAGGSLRLSCAASGRTIGVNAMGWYRQPHGTERELVAAITKDSGATNYADSVKGLFTISRDNAKITVYFQMNSLKADDTAVYYCAARVWVRGYYWGQGTQVTVSS
polyreactivity (PSR sort gate): low polyreactivity

QVQLVESGGGLVQAGGSLSLSCAAYGRTFTYYAMGWYRPAPGKERELVAVISSGGRTYYADSVKGRFTISRDNAKITVSFQMNSLKPDDKGVYYCNAASPRYLVEYDFWGQGTQVTVSS
polyreactivity (PSR sort gate): high polyreactivity

QVQLLESGGGLVQAGGSLRLSCAASGSTFRYYAMGWYRQAPGKERELVAAISKSGGRTYYADSVKGRFTISRDNAKHTVYLQMNSLKPEDTAVYYCAADSKEVRYDYWGQGTQVTVSS
polyreactivity (PSR sort gate): high polyreactivity

QVQLVDSGVGLVQAGGRLRLSCAASGRIFPFNAMGWYRQSPGKERELVAAITSSGGRTYYADSVKGRFTISRDNAKNTVYLQMNSLKPVDTAVYYCAATLVRRARSGPMGYWGQGTQVTVSS
polyreactivity (PSR sort gate): high polyreactivity

QVQLVESGGGLVQAGGSLRLSCAASGRTFDGNAMGWYRQAPGKEGEFVATISTDGGSTHYADSVKGRFTISRDNAKNTVYLQMNSLKPEDTAVYYCAADTPWYDDNYDYWGQGTQVTVSS
polyreactivity (PSR sort gate): low polyreactivity

QVQLVESGGGLVQAGGSLRLSCAASGRTLFRYAMGWYRQAPGKERELVAAISRSGGTTYYADSVKGRFTISRDNAKNTVYLQMNSLKPEDTAVYYCAARGRYKDGYRMDYWGQGTQVTVSS
polyreactivity (PSR sort gate): high polyreactivity

QVQLVESGGGLVQAGGSLRLSCAASGSIFYRNTMGWYRQAPVKERELVAAITSSGDSTYYADSVKGRFTISRDNAKNTVYFQMNSLKPEDTAVYYCAKDQHDFLEALYDSWGQGTQVTVSS
polyreactivity (PSR sort gate): low polyreactivity

QVQLVESGGGLVQAGGSLRLSCAASGSTFPRNAMGWYRQAPGKERELVAVITGSGGSTYYADSVKGRFTISRDNAKNTVYLQMNSLKPEDTAVYYCNARPTRRTRYDSWGQGTQVTVSS
polyreactivity (PSR sort gate): high polyreactivity

QVQLVESGAGLVQAGGSLRLSCAASGSTFGINAMGWYRQAHGKEREFVASISWSTGTKYYADSVKGRFTISRDNAKNTVYLQMNSLKAEDTAVYYCAAVCSRFYGLPRYYYCGQGTQVTVSS
polyreactivity (PSR sort gate): high polyreactivity

QVQLVESGGGLVQAGGSLRLSCAASGYTFGTYDMGWYRQAPGNERELGAAISLGGSTNYADSVKGPFTISRDNAKNTVYLQMYSLKPEDTAVYYCAAEVNVGTLLLSVIVEDGDYWGQGTQVTVSS
polyreactivity (PSR sort gate): low polyreactivity

QVQLVESGGGLVQAGGSLRLICAASGRIFEKYAMGWYRQEPGKERELVAAISSSGGSTYYADSVKGRFTISRDIAKNTVYLQMNSLKPDDTAVYYCAKLVVVPFYYWGQGTQVSVSS
polyreactivity (PSR sort gate): high polyreactivity

QVQLVESGGGLVQAGGSLRLSCAASGFIITSYAMGWYRQAPGKERELVAAINGGGSTYYADSVKGRFTISRDNAKNTVYLQMNSLKPEDTAVYYCAAKFRAGRSSYYWGQGTQVTVSS
polyreactivity (PSR sort gate): high polyreactivity

QVQLVESGGGLVHAGGSLRLSCAASGRIFTYNAMGWYRQAPGKERELVAAISTGGSTNYADSVKGRFTISRDNAKNTVYLQMNSLKPEDTAVYYCARRWWPTYDYWGQGTQVTVSS
polyreactivity (PSR sort gate): high polyreactivity

QVQLVESGGGLVQAGGSLRLSCAHSGFTFTRNAMGWYRQSPGKETELVATISGSGGGTYYADSVKGRFTISRDNAKNTVYLQMNRLKPEDTAVYYCNARRLYSWQGTARYDFWGQGTQVTVSS
polyreactivity (PSR sort gate): low polyreactivity

QVQLVESCGGLVQAGGSLRLSCAASGIIFPPYAMGWYRPAPGKERELVAAITRSGASTYYADSVKGRFTISRDNAKNTVYLQMNSLKPEDTAVYYCAVGVPGGYWKDYYWGQGTQVTVSS
polyreactivity (PSR sort gate): high polyreactivity

QVQLVESGGGLVQAGGSLRLSCAASGSTFYVYAMGWYRQAPGKERELVAAIDSGDSTNYADSVKGRFTISRDNAKNTVYLQMNSLKPEDTAVYYCAADRTVYPFNYWGQGTQVTVSS
polyreactivity (PSR sort gate): low polyreactivity

QVQLQESGGGLVQAGASLRLSCAASGTIFLFRNMGWHRQAPGKERELVAGINGGTTTYYADSVIGRFTISRDNAKNTVYLQMNSLKPDDTAVYNCAAGASRLTYYDYWGLGTQVTVSS
polyreactivity (PSR sort gate): low polyreactivity

QVQLVESGGGLVQAGGSLRLSCAASGGIFYGYAMGWYRQAPGKERELVAAITTGGSTNYADSVKGRFTISRDNAKNTVYLQMNSLKPEDTAVYYCAAPVNRAQGPYARRVERYGYWGQGTQVTVSS
polyreactivity (PSR sort gate): low polyreactivity
